Source: publication PMC4006906 (PLoS Pathogens, 2014)

Biological target: T1, A/California/04/2009 (H1CA0409) recombinant HA (Influenza A virus, A/California/04/2009 …, UniProt C3W5S1, strain)
T1 construct: source: supplied by BEI Resources
Experiment: ELISA
Conditions: both partners purified

B1: F10 scFv (wild type) (scFv, V domains shown)
VH: QVQLVQSGAEVKKPGSSVKVSCTSSEVTFSSFAISWVRQAPGQGLEWLGGISPMFGTPNYAQKFQGRVTITADQSTRTAYMDLRSLRSEDTAVYYCARSPSYICSGGTCVFDHWGQGTLVTVSS
VL: QPGLTQPPSVSKGLRQTATLTCTGNSNNVGNQGAAWLQQHQGHPPKLLSYRNNDRPSGISERFSASRSGNTASLTITGLQPEDEADYYCSTWDSSLSAVVFGGGTKLTVL
notes: also called F10 wt; construct #1; source: E. coli BL21 (DE3), purified (streptactin beads)
B1: binds.
